From US5591427A, “Human Interleukin-3(Il-3) variants and their use to promote or antagonize IL-3-mediated processes” (Medvet Science Pty. Ltd., priority 1979, dated 1997) come the findings set out here.

Assay [1] has as its system chronic myeloid leukaemic (CML) cells. Nature of the assay: Proliferation of chronic myeloid leukaemic (CML) cells, [3H] thymidine incorporation. Type of assay: cell-based, human. The protocol: (b ) Proliferation of chronic myeloid leukaemic (CML) cells: Primarily CML cells from one patient were selected for their ability to incorporate [^3 H] thymidine in response to IL-3 as described (Lopez el. al., supra ). Briefly, CML cells were placed at 2×10^5 cells/mL fresh medium containing different concentrations of IL-3. Cells were incubated for 24 hours in a flat bottom 96-well NUNCLON plates (2×10^4 cells/well) before being pulsed with [^3 H] thymidine (0.5 μCi/well) for four more hours at 37° C. The cells were then harvested onto glass filters with a Titertek automated cell harvester and counted into a Beckman liquid scintillation counter. Data are expressed in cpm, and each point is the mean of six replicates.
(In general: Incorporation of labelled thymidine or its analogues reports DNA synthesis.)

For assay [2], the system named is monocytes. Put plainly: Stimulation of human monocyte adherence (51Cr adhesion assay). Type of assay: cell-based. The protocol: (a) Monocyte purification. Monocytes were purified from the peripheral blood of normal donors, obtained from the Adelaide Red Cross Transfusion Service, as previously described (Elliott et. al., 1990, J. Immunol., 145, 167-171). In brief, mononuclear cells were prepared by centrifugation of whole blood on lymphoprep cushions (Nyegaard, Oslo, Norway) and washed twice in HBSS, 0.02% EDTA, 0.1% heat inactivated FCS (Flow Laboratories, North Ryde, Australia) and monocytes were purified in a Beckman J-6M/E elutriator using the Sanderson chamber, a flow rate of 12 ml/min and a constant rotor speed of 2050 rpm. Cells remaining in the chamber after 30 min were collected, washed twice in HBSS, and used immediately. Using these methods, monocyte purity as assessed by morphology and nonspecific-esterase staining was always >90% and usually >95%. The major contaminating cell types were lymphocytes and granulocytes (principally basophils).
(b) Adhesion assay. Adhesion was measured by an isotopic method essentially as described (Elliott et. al., supra). In brief, purified monocytes (0.5 to 1×10^8) were resuspended in 1 ml RPMI 1640 with 0.1% FCS and antibiotics and incubated for 30 min at 37° C. with 500 μCi^51 Cr in the form of sodium chromate (Amersham International., Buckinghamshire, England). Cells were washed thrice in RPMI 1640 and resuspended in culture medium consisting of RPMI 1640, 10% FCS, antibiotics, and 0.2% sodium bicarbonate. For measurement of adhesion, 1 to 2.5×10^5 monocytes were aliquotted per well in 96-well microtitre plates (Nunc, Karnstrup, Denmark) together with stimuli or control medium to a total volume of […], and incubated for the indicated periods. […] At harvest, samples of supernatant were taken to assess spontaneous ^51 Cr release (usually <10% of cell-associated radioactivity), wells were washed three times with RPMI 1640 at 37° C., and residual adherent cells lysed in 10 mM Tris-hydrochloride, and 1% Nonident p40 detergent (Sigma). Lysates were transferred to tubes and counted in a Packard auto-gamma 5650. Percent adherence was calculated according to the formula: [formula]

Assay [3] addresses T1, IL-3R α chain (Homo sapiens, UniProt P26951).
T1 construct: amplify the complete coding region of the IL-3R alpha chain; expressed in transfected cells; host or cells: COS cells (pCDM8 vector, electroporation)
T1 sequence (P26951 19-378): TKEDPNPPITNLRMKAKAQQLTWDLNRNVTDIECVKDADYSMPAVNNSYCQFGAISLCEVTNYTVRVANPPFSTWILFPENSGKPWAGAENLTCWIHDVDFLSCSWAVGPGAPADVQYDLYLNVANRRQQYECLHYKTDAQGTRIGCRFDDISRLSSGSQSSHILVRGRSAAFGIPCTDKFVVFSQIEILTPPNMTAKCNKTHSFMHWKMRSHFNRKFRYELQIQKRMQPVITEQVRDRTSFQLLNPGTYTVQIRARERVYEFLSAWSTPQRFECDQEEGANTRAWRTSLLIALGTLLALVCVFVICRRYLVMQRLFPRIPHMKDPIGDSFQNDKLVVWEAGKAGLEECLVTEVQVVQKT
Nature of the assay: Competition for 125I-IL-3 binding to cloned IL-3R α chain expressed in COS cell transfectants. To be noted: for competition for 125I-IL-3 binding to cells expressing only the α chain: FIG. 6. From the text:
PolyA+ RNA was isolated from the human cord blood cell line KMT2. Oligo dT primed double stranded cDNA was synthesised and used as template for PCR amplification. The PCR primers were designed to amplify the complete coding region of the IL-3R alpha chain and also to amplify the coding region of the […]. The PCR products were cloned into the vector pGEM-2 for sequence verification, and then into the eukaryotic expression vector, pCDM8. The […]-containing plasmid was transfected into COS cells by electroporation, either on its own or in conjunction with the […], and after two days the cells were used for binding studies.

The mark [4] stands for this setting: concentration of IL-3 mutant giving 50% of biological activity compared to that of wild type IL-3.

B1: M37: human IL-3 mutant, Asp 101 replaced by Ala and Lys 116 by Val (protein, UniProt P08700 20-152, looked up, variant D101A K116V)
Interleukin-3: APMTQTTPLKTSWVNCSNMIDEIITHLKQPPLPLLDFNNLNGEDQDILMENNLRRPNLEAFNRAVKSLQNASAIESILKNLLPCLPLATAAPTRHPIHIKAGDWNEFRRKLTFYLVTLENAQAQQTTLSLAIF
Take B1: the “stimulation of CML cell proliferation” value in assay [1] (FIG. 2, FIG. 8) is on record as “more potent than the wild type IL-3”. The “Relative biological activity, PROLIFERATION CML” value in assay [1] (setting [4]) worked out at 1694. In addition, in assay [1] (summary statement over the functional assays of the Table (colonies, CML, monocyte)), the “increase in biological activity versus wild type” value is given as 15-20 fold. For the same molecule, the “stimulation of monocyte adherence” value in assay [2] (FIG. 3) was “more potent than the wild type IL-3”. The “Relative biological activity, MONOCYTE” value in assay [2] (setting [4]) came to 2100. In assay [3] (COS cells transfected with IL-3R α chain cDNA, E. coli produced protein), the “fold higher affinity than wild type IL-3” value is reported as 10 fold. Moreover, the “competition for 125I-IL-3 binding to cells expressing only the α chain” value was “competed for binding more efficiently” in assay [3] and “more potent at competing for binding than wild-type IL-3” in assay [3] (listed as IL-3 (Ala^101, Val^116)).
